Test results taken from US20240279845A1, “METHOD FOR PREPARING A LIBRARY OF PEPTIDES OR A PEPTIDE” (ECOLE POLYTECHNIQUE FEDERALE DE LAUSANNE (EPFL), priority 2021, published 2024).

Assays:
[1] = test system: Cc1cc(=O)oc2cc(NC(=O)[C@H](CCCNC(=N)N)NC(=O)[C@@H]3CCCN3C(=O)[C@@H](NC(=O)OC(C)(C)C)C(C)C)ccc12; assay: Substrate KM for protease screen, KLK5; type: biochemical; settings: other: KLK5
Experimental: (§1) Crude macrocyclic libraries (4 mM DMSO stocks in 384-well LDV plates were transferred into 1536-well microtiter OptiPlates via ADE. Applied buffered solutions were prepared by filtration through PTFE syringe filters (0.22 μm) and assays were initiated by addition of protease (4.41 μl/well) in appropriate buffer (see list below) supplemented with bovine serum albumin (BSA; 0.1% w/v) and dispensed using a CERTUS automated liquid handler. Plates were incubated for 10 min at ambient temperature before fluorogenic substrate in appropriate buffer (4.5 μl) was added using a CERTUS automated liquid handler. Plates were centrifugated (800 g, 2 min) and fluorescence intensity was measured using a PHERAstar plate reader (excitation 384 nm, emission 440 nm) in time increments of 150 s over 15 min. Slopes of fluorescence increase (m) were calculated with Microsoft Excel (vers. 16.56). Negative controls were prepared without macrocycle. An average of 12 negative controls was used to calculate residual activities using Equation I below: […]
(§2) where [S]0 is the initial substrate concentration and KM is the Michaelis-Menten constant^12 for the enzyme and substrate.

[2] = test system: Cc1cc(=O)oc2cc(NC(=O)[C@H](CCCNC(=N)N)NC(=O)[C@H](Cc3ccccc3)NC(=O)OCc3ccccc3)ccc12; assay: Substrate KM for protease screen, PKal; type: biochemical; settings: other: PKal
Experimental: as §1, §2

Sequence of PKal (Homo sapiens) (chain, as listed by the source): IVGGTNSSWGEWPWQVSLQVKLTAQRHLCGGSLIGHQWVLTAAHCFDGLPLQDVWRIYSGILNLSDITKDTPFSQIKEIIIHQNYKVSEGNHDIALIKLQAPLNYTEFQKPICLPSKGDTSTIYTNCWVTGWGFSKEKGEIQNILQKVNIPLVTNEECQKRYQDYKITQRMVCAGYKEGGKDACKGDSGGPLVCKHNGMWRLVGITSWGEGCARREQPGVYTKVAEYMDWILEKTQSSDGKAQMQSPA

| Substance | Km [1] | Km [2] |
| --- | --- | --- |
| KLK5 (Homo sapiens) | 200 ± 10 µM |  |
| PKal (Homo sapiens) |  | 120 ± 28 µM |
